Results: patent US6077680A (The University of Florida, dated 2000)
Several values for one entry are separate records, joined by “and”; a condition that tells them apart may be missing. Equal entries are not always repeated. Where two headings read alike, the source gives them in different places. Bridges are numbered along the chain shown (N, C = ends). Where no end group is shown, it is not given here.

Columns and labels:
[1] = test system: rat brain membrane K channels (primarily Kv1.2); type: binding
Kv1.3(D386→K) = type: cell-based
[2] = target: Kv1.3 potassium channels in Jurkat T lymphocytes (Homo sapiens, UniProt P22001); type: cell-based
Kv1.3 [3] = target: T1, Kv1.3 (Mus musculus, UniProt P16390); type: cell-based
[4] = target: Kv1.3 channels in Jurkat T lymphocytes (Homo sapiens, UniProt P22001); type: binding
Kv1.3 [5] = target: T1, Kv1.3; experiment: cell-based; type: cell-based
Kv3.1 = Kv3.1 (Mus musculus, UniProt P15388); type: cell-based
Kv1.2 = Kv1.2 (Rattus norvegicus, UniProt P63142); type: cell-based
Kv1.5 = Kv1.5 (Homo sapiens, UniProt P22460); type: cell-based
[6] = test system: Kv1.1, Kv1.2, Kv1.5, Kv3.1, hKCa4 relative to Kv1.3; type: cell-based
IKCa (hKCa4) = IKCa (hKCa4) (Homo sapiens, UniProt O15554); type: cell-based
[7] = test system: pepsin A, pancreatic elastase, subtilisin, trypsin-chymotrypsin, thermolysin
[8] = target: cloned Kv1.3 channel, wild type
[9] = target: rat brain membrane K channels (delayed rectifier, primarily Kv1.2) (rat) (UniProt P63142)
Kv1.3 D386K = experiment: electrophysiological block of current; Kd from fraction of unblocked current
Kv1.3 H404Y = experiment: as above
[10] = target: Kv1.3 channel printed as G30; experiment: as above
Kv1.3 D386N = experiment: as above
Kv1.3 H404T = experiment: as above
Kv1.3 H404L = experiment: as above
Kv1.3 G380E = experiment: as above
[11] = target: cloned Kv1.3 channel, wild type; remark: listed apart in the source
cloned Kv1.5 channel [12] = experiment: patch clamp block of cloned channel
cloned Kv3.1 channel [13] = experiment: patch clamp block of cloned channel
cloned Kv1.2 channel [14] = target: cloned Kv1.2 channel
[15] = target: cloned Kv1.3 channel, wild type; remark: listed apart in the source
[16] = target: rat brain membrane K channels (delayed rectifier, primarily Kv1.2) (rat) (UniProt P63142); experiment: IC50 ratio on brain delayed rectifier K channels (table title); assay not given
[17] = target: IKCa channel of activated human T-cells (human) (UniProt O15554); experiment: whole-cell patch clamp block, activated human T-cells; called Kd in paragraph 470
[18] = target: cloned Kv1.3 channel, wild type; experiment: patch clamp block of Kv1.3
cloned Kv1.2 channel [19] = target: cloned Kv1.2 channel; remark: listed apart in the source
[20] = target: cloned Kv1.3 channel, wild type; remark: listed apart in the source
[21] = target: cloned Kv1.3 channel, wild type; remark: listed apart in the source
[22] = target: cloned Kv1.3 channel, wild type; experiment: block of cloned channel
cloned Kv1.1 channel [23] = experiment: block of cloned channel
[24] = target: rat brain membrane K channels (delayed rectifier, primarily Kv1.2) (rat) (UniProt P63142); remark: listed apart in the source
[25] = target: cloned Kv1.3 channel, wild type; remark: listed apart in the source
[26] = target: small conductance calcium-activated potassium channel in T-cells; experiment: block of channel in T-cells
cloned Kv1.1 channel [27] = target: cloned Kv1.1 channel
[28] = target: cloned Kv1.3 channel, wild type; remark: listed apart in the source
cloned Kv1.1 channel [29] = target: cloned Kv1.1 channel; remark: listed apart in the source
[30] = target: rat brain membrane K channels (delayed rectifier, primarily Kv1.2) (rat) (UniProt P63142); remark: listed apart in the source
cloned Kv1.2 channel [31] = experiment: whole-cell patch clamp block, cell line stably expressing the channel
cloned Kv1.5 channel [32] = experiment: as above
cloned Kv3.1 channel [33] = experiment: as above
[34] = target: cloned Kv1.3 channel, wild type; experiment: as above
cloned Kv1.1 channel [35] = experiment: as above
cloned Kv1.2 channel [36] = experiment: block of cloned channel
cloned Kv1.1 channel [37] = target: cloned Kv1.1 channel; remark: listed apart in the source
[38] = target: T2, rat brain membrane K channels (delayed rectifier, primarily Kv1.2) (rat, UniProt P63142); experiment: IC50 ratio on brain delayed rectifier K channels (table title); assay not given
[39] = target: T2, rat brain membrane K channels (delayed …); experiment: 125I-DTX displacement, rat brain membranes
[40] = target: T2, rat brain membrane K channels (delayed …)
[41] = target: T3, Kv1.3 potassium channel of human T lymphocytes (human, UniProt P22001); experiment: 125I-ChTX displacement, Jurkat T lymphocytes
[42] = target: T3, Kv1.3 potassium channel of human T …; experiment: 125I-ChTX displacement, Jurkat T lymphocytes; remark: listed apart in the source

Sequence of Kv1.3 potassium channels in Jurkat T lymphocytes (P22001 whole entry): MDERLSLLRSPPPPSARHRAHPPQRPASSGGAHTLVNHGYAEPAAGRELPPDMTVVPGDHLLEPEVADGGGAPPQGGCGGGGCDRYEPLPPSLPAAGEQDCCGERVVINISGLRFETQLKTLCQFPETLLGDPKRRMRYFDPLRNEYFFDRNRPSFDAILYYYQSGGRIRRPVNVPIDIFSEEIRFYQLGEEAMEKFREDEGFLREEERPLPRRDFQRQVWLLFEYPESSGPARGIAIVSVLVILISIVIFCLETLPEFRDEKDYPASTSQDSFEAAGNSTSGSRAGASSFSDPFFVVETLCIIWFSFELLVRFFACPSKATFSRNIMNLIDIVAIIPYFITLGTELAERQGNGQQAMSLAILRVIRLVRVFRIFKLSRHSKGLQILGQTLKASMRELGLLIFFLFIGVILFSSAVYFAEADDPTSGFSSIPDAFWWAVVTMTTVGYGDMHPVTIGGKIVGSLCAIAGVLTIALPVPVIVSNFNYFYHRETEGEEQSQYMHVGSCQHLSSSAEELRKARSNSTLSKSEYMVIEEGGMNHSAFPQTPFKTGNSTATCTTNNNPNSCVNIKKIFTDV
T1 sequence (P16390 whole entry): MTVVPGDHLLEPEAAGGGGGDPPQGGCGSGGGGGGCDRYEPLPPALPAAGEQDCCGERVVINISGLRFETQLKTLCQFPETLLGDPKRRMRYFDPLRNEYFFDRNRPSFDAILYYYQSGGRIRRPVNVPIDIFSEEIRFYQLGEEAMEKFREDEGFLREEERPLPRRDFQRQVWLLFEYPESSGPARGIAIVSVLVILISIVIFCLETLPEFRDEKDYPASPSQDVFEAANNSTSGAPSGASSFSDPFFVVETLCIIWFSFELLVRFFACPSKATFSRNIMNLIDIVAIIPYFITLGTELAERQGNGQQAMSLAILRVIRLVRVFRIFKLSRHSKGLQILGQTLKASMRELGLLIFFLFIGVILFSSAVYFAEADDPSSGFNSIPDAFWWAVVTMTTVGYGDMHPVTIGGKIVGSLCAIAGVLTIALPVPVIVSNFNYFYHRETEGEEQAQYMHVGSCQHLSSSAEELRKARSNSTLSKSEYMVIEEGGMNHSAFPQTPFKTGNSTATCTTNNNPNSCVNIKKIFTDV
Sequence of Kv1.3 channels in Jurkat T lymphocytes (P22001 whole entry): as the sequence (P22001 whole entry) above
Sequence of IKCa (hKCa4) (O15554 whole entry): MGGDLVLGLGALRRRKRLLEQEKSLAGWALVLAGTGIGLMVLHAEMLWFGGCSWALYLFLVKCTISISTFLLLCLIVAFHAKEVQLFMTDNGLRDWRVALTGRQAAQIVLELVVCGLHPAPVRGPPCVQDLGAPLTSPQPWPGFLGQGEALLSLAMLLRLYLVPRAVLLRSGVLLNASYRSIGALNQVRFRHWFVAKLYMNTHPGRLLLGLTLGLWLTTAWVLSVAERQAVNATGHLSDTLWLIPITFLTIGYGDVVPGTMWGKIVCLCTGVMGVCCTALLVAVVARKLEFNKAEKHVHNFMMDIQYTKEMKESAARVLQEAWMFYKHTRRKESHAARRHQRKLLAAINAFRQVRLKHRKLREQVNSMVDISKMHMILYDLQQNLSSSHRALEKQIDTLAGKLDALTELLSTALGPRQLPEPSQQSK
Sequence of Kv3.1 (P15388 whole entry): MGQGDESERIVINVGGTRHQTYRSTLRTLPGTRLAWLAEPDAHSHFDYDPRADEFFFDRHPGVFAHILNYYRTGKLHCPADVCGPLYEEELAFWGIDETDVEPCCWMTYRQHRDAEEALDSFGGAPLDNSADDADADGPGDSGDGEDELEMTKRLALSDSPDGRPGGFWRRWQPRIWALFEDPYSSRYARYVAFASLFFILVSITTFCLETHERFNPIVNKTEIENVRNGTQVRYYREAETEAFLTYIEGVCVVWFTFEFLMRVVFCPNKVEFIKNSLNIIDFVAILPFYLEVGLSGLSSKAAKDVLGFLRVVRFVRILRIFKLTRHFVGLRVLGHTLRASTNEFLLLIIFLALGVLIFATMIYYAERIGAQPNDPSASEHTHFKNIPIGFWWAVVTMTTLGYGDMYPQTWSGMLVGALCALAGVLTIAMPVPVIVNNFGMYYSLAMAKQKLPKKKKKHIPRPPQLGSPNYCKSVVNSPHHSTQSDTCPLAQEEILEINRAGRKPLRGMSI
Sequence of Kv1.2 (P63142 whole entry): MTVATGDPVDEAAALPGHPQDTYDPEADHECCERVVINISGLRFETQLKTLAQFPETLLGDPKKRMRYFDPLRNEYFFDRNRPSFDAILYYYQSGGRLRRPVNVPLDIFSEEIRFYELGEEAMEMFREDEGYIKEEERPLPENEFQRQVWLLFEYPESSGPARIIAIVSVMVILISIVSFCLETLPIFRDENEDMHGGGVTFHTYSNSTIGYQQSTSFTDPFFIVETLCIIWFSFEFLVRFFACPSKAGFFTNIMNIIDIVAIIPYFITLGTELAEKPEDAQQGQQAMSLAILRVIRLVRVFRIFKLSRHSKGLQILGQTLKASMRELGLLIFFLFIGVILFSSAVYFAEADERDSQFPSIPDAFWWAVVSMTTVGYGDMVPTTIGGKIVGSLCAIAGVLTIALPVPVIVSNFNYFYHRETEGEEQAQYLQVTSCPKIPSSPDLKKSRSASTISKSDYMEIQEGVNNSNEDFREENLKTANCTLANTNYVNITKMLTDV
Sequence of Kv1.5 (P22460 whole entry): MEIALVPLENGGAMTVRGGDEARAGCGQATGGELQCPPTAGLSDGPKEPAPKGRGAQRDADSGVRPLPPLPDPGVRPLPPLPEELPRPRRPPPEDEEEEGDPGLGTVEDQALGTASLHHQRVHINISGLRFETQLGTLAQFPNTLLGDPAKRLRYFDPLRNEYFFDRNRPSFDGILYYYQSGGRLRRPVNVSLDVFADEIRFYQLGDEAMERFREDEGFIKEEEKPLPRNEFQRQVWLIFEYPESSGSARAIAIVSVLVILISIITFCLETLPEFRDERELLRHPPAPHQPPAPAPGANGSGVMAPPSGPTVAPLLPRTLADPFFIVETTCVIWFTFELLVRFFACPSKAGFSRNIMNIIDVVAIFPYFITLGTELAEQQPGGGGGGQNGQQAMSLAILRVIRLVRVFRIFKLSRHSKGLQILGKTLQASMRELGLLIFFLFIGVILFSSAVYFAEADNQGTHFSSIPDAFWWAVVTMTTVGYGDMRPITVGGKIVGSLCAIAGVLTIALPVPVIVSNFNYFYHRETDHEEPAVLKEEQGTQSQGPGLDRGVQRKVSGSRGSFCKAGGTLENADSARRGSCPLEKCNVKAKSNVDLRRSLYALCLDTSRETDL

With `CCCC[C@@H]1NC(=O)[C@H](CCSC)NC(=O)[C@H](CO)NC(=O)[C@H](Cc2c[nH]cn2)NC(=O)[C@H](CCCCN)NC(=O)[C@@H]2CSSC[C@@H]3NC(=O)[C@H]([C@@H](C)O)NC(=O)[C@H](CCCCN)NC(=O)[C@H](CCCNC(=N)N)NC(=O)[C@H](CSSC[C@H](NC(=O)[C@H](CCCNC(=N)N)NC(=O)[C@H](CO)NC(=O)[C@H](CCCCN)NC(=O)[C@@H]4CCCN4C(=O)[C@H]([C@@H](C)CC)NC(=O)[C@H]([C@@H](C)O)NC(=O)[C@H](CC(=O)O)NC(=O)[C@H]([C@@H](C)CC)NC(=O)[C@@H](NC(=O)[C@H](CO)NC(=O)[C@@H](N)CCCNC(=N)N)CSSC[C@@H](C(=O)O)NC(=O)[C@H]([C@@H](C)O)NC(=O)CNC3=O)C(=O)N[C@@H]([C@@H](C)O)C(=O)N[C@@H](C)C(=O)N[C@@H](Cc3ccccc3)C(=O)N[C@@H](CCC(N)=O)C(=O)N2)NC(=O)[C@H](Cc2ccccc2)NC(=O)[C@H](CO)NC(=O)[C@H](CC(C)C)NC(=O)[C@H](CCCNC(=N)N)NC(=O)[C@H](Cc2ccc(O)cc2)NC1=O` [K22Nle] the “Equipotent Molar Ration (Analog IC50 /ShK IC50) Rat brain” value [1] was over 250, the “IC50 Ratio” value [1] was over 250 and the ΔF [1] was over 3.23. The “ΔΔG (coupling energy), mutant cycle” value (Kv1.3(D386→K)) was 0.053 kcal/mol, the “Equipotent Molar Ration (Analog IC50 /ShK IC50) Lymphocyte” value [2] was over 23 and the “reduction of affinity (IC50) for Kv1.3 relative to ShK toxin” value [2] was “more than 23 fold”.

`CC[C@H](C)[C@@H]1NC(=O)[C@@H](NC(=O)[C@H](CO)NC(=O)[C@@H](N)CCCNC(=N)N)CSSC[C@@H](C(=O)O)NC(=O)[C@H]([C@@H](C)O)NC(=O)CNC(=O)[C@@H]2CSSC[C@@H]3NC(=O)[C@H](CCC(N)=O)NC(=O)[C@H](Cc4ccccc4)NC(=O)[C@H](C)NC(=O)[C@H]([C@@H](C)O)NC(=O)[C@H](CSSC[C@H](NC(=O)[C@H](Cc4ccccc4)NC(=O)[C@H](CO)NC(=O)[C@H](CC(C)C)NC(=O)[C@H](CCCNC(=N)N)NC(=O)[C@H](Cc4ccc(O)cc4)NC(=O)[C@H](CCCCN)NC(=O)[C@H](CCSC)NC(=O)[C@H](CO)NC(=O)[C@H](Cc4cnc[nH]4)NC(=O)[C@H](CCCCN)NC3=O)C(=O)N[C@@H](CCCNC(=N)N)C(=O)N[C@@H](CCCCN)C(=O)N[C@@H]([C@@H](C)O)C(=O)N2)NC(=O)[C@H](CCCNC(=N)N)NC(=O)[C@H](CO)NC(=O)[C@H](CCCCN)NC(=O)[C@@H]2CCCN2C(=O)[C@H]([C@@H](C)CC)NC(=O)[C@H]([C@@H](C)O)NC(=O)[C@H](CC(=O)O)NC1=O` [ShK] was tested, and the “Hill coefficient, Kv1.3 block” value (Kv1.3 [3]) was “close to unity”, the ΔF [1] was 0.0 and the IC50 ([1]; read-out: IC50 Rat Brain 125I-CTX) was 8 nM. For the same molecule, the “Hill coefficient, [125I]-ChTX binding” value [4] was 0.89±0.17, the “washout from the receptor” value (Kv1.3 [5]) was “binds almost irreversibly” and the “sensitivity of Kv3.1, in words” value (Kv3.1) was “resistant to the peptide”. The “Kv1.2 less sensitive than Kv1.3” value (Kv1.2) was 100 fold, the “sensitivity of Kv1.5, in words” value (Kv1.5) was “resistant to the peptide” and the “other closely related channels less sensitive than Kv1.3” value [6] was over 100 fold. For the same molecule, the “hKCa4 less sensitive than Kv1.3” value (IKCa (hKCa4)) was 100 fold, the “resistance to proteolysis by porcine pepsin A, pancreatic elastase and subtilisin” value ([7]; […], 30° C., pH 3.0 (pepsin A), pH 6.5 (elastase, subtilisin)) was “completely resistant to proteolysis” and the “cleavage by trypsin-chymotrypsin mixture or thermolysin” value ([7]; pH 6.5) was “readily cleaved”.

With “ShK toxin (synthetic, wild type) (peptide)” the Kd [8] was 0.6 nM and 0.3 nM, the free energy difference of binding [9] was 0 kcal/mol and the Kd (Kv1.3 D386K) was 1.8 nM. For the same molecule, the Kd (Kv1.3 H404Y) was 4 nM, the Kd [10] was 0.6 nM and the Kd (Kv1.3 D386N) was 0.4 nM. The Kd (Kv1.3 H404T) was 0.3 nM, the Kd (Kv1.3 H404L) was 3.2 nM and the Kd (Kv1.3 G380E) was 0.6 nM. The Kd [11] was 0.1 nM, the Kd (cloned Kv1.5 channel [12]) was over 1000 nM and the Kd (cloned Kv3.1 channel [13]) was over 1000 nM. The Kd (cloned Kv1.2 channel [14]) was 9 nM, the Kd [15] was 0.012 nM and the free energy difference of binding [16] was 0 kcal/mol. For the same molecule, the Kd [17] was 28 nM, the Kd [18] was 0.011 nM and the block of Kv1.2 current, whole-cell patch clamp (cloned Kv1.2 channel [19]) was 100 fold. For the same molecule, the block of Kv1.3 current, whole-cell patch clamp (IC50) [20] was 0.012 nM, the Kd [21] was 0.7 nM and the Kd [22] was 0.01 nM. The Kd (cloned Kv1.1 channel [23]) was 0.01 nM and the IC50 [24] was 8 nM.

ShK-K22DAP (peptide) showed a half-blocking dose for Kv1.3 [25] of 28 pM, a Kd [26] of 10 nM and a potency on Kv1.1 against its potency on Kv1.3 (cloned Kv1.1 channel [27]) of 40 fold. The block of Kv1.3 current, whole-cell patch clamp (IC50) [28] was 0.03 nM, the block of Kv1.1 current, whole-cell patch clamp (cloned Kv1.1 channel [29]) was 30 fold and the free energy difference of binding [30] was 2.23 kcal/mol. It also gave a Kd (cloned Kv1.2 channel [31]) of 39 nM, a Kd (cloned Kv1.5 channel [32]) of over 100 nM and a Kd (cloned Kv3.1 channel [33]) of over 100 nM. It also gave a Kd [34] of 0.023 nM, a Kd (cloned Kv1.1 channel [35]) of 3 nM and a Kd (cloned Kv1.2 channel [36]) of 5 nM. For the same molecule, the loss of potency against Kv1.1 (cloned Kv1.1 channel [37]) was over 100 fold.

In the case of Ac-RSCIDTIPKSRCTAFQCKHSMKYRLSFCRKTCGTC (ends and bridges not checked) [N-alpha-acetyl ShK toxin], the “IC50 ratio (analog IC50/ShK IC50)” value [38] is reported as 1 ratio and the “IC50 ratio (analog IC50/ShK IC50)” value [39] is reported as 1 ratio.

With RSCIDTIPKSRCTKFQCDHSMKYRLSFCRKTCGTC (lactam 14-18; ends not checked) [ShK analog 106, Lactam Bridge (K14 -D18)] the “IC50 ratio (analog IC50/ShK IC50)” value [40] was 1.63 ratio.

For RSCIDTIPKSRCTAFQCKHSMKYRLSFCRKTCGTC [ShK toxin (synthetic, wild type)], the IC50 [41] was 0.032 nM and the IC50 [42] was 0.04 nM.
